Measured values from PMC12132310.

Experiments:
[1] = target: SUZ12-3XFLAG PRC2.1mut (loss-of-PRC2.1 mutant, (338–353)-to-GSGSGS) (human (edited endogenous locus in WTC-11 hiPSCs)), Q15022; assay: affinity purification with mass spectrometry; settings: remark: other sources report otherwise
[2] = target: SUZ12-3XFLAG PRC2.2mut (loss-of-PRC2.2 mutant, F99A, R103A, L105A, I106A) (human (edited endogenous locus in WTC-11 hiPSCs)), Q15022; assay: affinity purification with mass spectrometry; settings: remark: other sources report otherwise

| Binder | fold less enriched than with WT SUZ12 [1] | fold less enriched than with WT SUZ12 [2] |
| --- | --- | --- |
| MTF2 (endogenous, hiPSCs), Q9Y483 1-593 (natural protein) MRDSTGAGNSLVHKRSPLRRNQKTPTSLTKLSLQDGHKAKKPACKFEEGQDVLARWSDGLFYLGTIKKINILKQSCFIIFEDSSKSWVLWKDIQTGATGSGEMVCTICQEEYSEAPNEMVICDKCGQGYHQLCHTPHIDSSVIDSDEKWLCRQCVFATTTKRGGALKKGPNAKALQVMKQTLPYSVADLEWDAGHKTNVQQCYCYCGGPGDWYLKMLQCCKCKQWFHEACVQCLQKPMLFGDRFYTFICSVCSSGPEYLKRLPLQWVDIAHLCLYNLSVIHKKKYFDSELELMTYINENWDRLHPGELADTPKSERYEHVLEALNDYKTMFMSGKEIKKKKHLFGLRIRVPPVPPNVAFKAEKEPEGTSHEFKIKGRKASKPISDSREVSNGIEKKGKKKSVGRPPGPYTRKMIQKTAEPLLDKESISENPTLDLPCSIGRTEGTAHSSNTSDVDFTGASSAKETTSSSISRHYGLSDSRKRTRTGRSWPAAIPHLRRRRGRLPRRALQTQNSEIVKDDEGKEDYQFDELNTEILNNLADQELQLNHLKNSITSYFGAAGRIACGEKYRVLARRVTLDGKVQYLVEWEGATAS | 35 fold |  |
| EPOP, A6NHQ4 1-379 (natural protein) METLCPAPRLAVPASPRGSPCSPTPRKPCRGTQEFSPLCLRALAFCALAKPRASSLGPGPGELAARSPVLRGPQAPLRPGGWAPDGLKHLWAPTGRPGVPNTAAGEDADVAACPRRGEEEEGGGGFPHFGVRSCAPPGRCPAPPHPRESTTSFASAPPRPAPGLEPQRGPAASPPQEPSSRPPSPPAGLSTEPAGPGTAPRPFLPGQPAEVDGNPPPAAPEAPAASPSTASPAPAAPGDLRQEHFDRLIRRSKLWCYAKGFALDTPSLRRGPERPPAKGPARGAAKKRRLPAPPPRTAQPRRPAPTLPTTSTFSLLNCFPCPPALVVGEDGDLKPASSLRLQGDSKPPPAHPLWRWQMGGPAVPEPPGLKFWGINMDES | 48 fold |  |
| JARID2 (endogenous, hiPSCs), Q92833 1-1246 (natural protein) MSKERPKRNIIQKKYDDSDGIPWSEERVVRKVLYLSLKEFKNSQKRQHAEGIAGSLKTVNGLLGNDQSKGLGPASEQSENEKDDASQVSSTSNDVSSSDFEEGPSRKRPRLQAQRKFAQSQPNSPSTTPVKIVEPLLPPPATQISDLSKRKPKTEDFLTFLCLRGSPALPNSMVYFGSSQDEEEVEEEDDETEDVKTATNNASSSCQSTPRKGKTHKHVHNGHVFNGSSRSTREKEPVQKHKSKEATPAKEKHSDHRADSRREQASANHPAAAPSTGSSAKGLAATHHHPPLHRSAQDLRKQVSKVNGVTRMSSLGAGVTSAKKMREVRPSPSKTVKYTATVTKGAVTYTKAKRELVKDTKPNHHKPSSAVNHTISGKTESSNAKTRKQVLSLGGASKSTGPAVNGLKVSGRLNPKSCTKEVGGRQLREGLQLREGLRNSKRRLEEAHQAEKPQSPPKKMKGAAGPAEGPGKKAPAERGLLNGHVKKEVPERSLERNRPKRATAGKSTPGRQAHGKADSASCENRSTSQPESVHKPQDSGKAEKGGGKAGWAAMDEIPVLRPSAKEFHDPLIYIESVRAQVEKFGMCRVIPPPDWRPECKLNDEMRFVTQIQHIHKLGRRWGPNVQRLACIKKHLKSQGITMDELPLIGGCELDLACFFRLINEMGGMQQVTDLKKWNKLADMLRIPRTAQDRLAKLQEAYCQYLLSYDSLSPEEHRRLEKEVLMEKEILEKRKGPLEGHTENDHHKFHPLPRFEPKNGLIHGVAPRNGFRSKLKEVGQAQLKTGRRRLFAQEKEVVKEEEEDKGVLNDFHKCIYKGRSVSLTTFYRTARNIMSMCFSKEPAPAEIEQEYWRLVEEKDCHVAVHCGKVDTNTHGSGFPVGKSEPFSRHGWNLTVLPNNTGSILRHLGAVPGVTIPWLNIGMVFSTSCWSRDQNHLPYIDYLHTGADCIWYCIPAEEENKLEDVVHTLLQANGTPGLQMLESNVMISPEVLCKEGIKVHRTVQQSGQFVVCFPGSFVSKVCCGYSVSETVHFATTQWTSMGFETAKEMKRRHIAKPFSMEKLLYQIAQAEAKKENGPTLSTISALLDELRDTELRQRRQLFEAGLHSSARYGSHDGSSTVADGKKKPRKWLQLETSERRCQICQHLCYLSMVVQENENVVFCLECALRHVEKQKSCRGLKLMYRYDEEQIISLVNQICGKVSGKNGSIENCLSKPTPKRGPRKRATVDVPPSRLSASSSSKSASSSS |  | 13 fold |
